The source of these data is patent publication US9339557B2, “Photosensitizer-metal nanoparticle complex and composition containing the complex for photodynamic therapy or diagnosis” (NATIONAL CANCER CENTER, priority 2009, dated 2016).

Common to all, as to format: cell-based, human
Series [1] relates to HT1080 cells overexpressing MMP2. Put plainly: Fluorescence activation of photosensitizer-metal nanoparticle complex, confocal microscopy. Particulars: HT1080 (MMP2 overexpressing) compared with BT20 (MMP2 underexpressing); 5 μM equivalent of photosensitizer, 15 hours, 37° C.; Ex. 405 nm, Em. 646-753 nm. The protocol:
HT1080 cells (human fibrosarcoma cell line) overexpressing MMP2 and BT20 cells (human mammary adenocarcinoma cell line) underexpressing MMP2 (see Bremer C. et al., Nature Medicine 7(6) 743-748, 2001) were obtained from ATCC (Manassas, Va.). MMP2-positive HT1080 (90,000 cells) and MMP2-negative BT20 cells (90,000 cells) in culture media were seeded into each wells of LabTek II Chambered Coverglass. Afterwards, the photosensitizer-metal nanoparticle complex solution prepared in Preparation Example 2 was diluted with a culture medium to have 5 μM equivalent weight of the photosensitizer, and added at 600 μl per well. The cells were incubated in an incubator at 37° C. for 15 hours. After the culture medium including the complex was removed, and the cells were washed three times with a fresh culture medium, fluorescence was observed using a confocal microscope (Ex. 405 nm, Em. 646-753 nm).

A further series concerns BT20 cells. Description: Cell viability after photodynamic therapy (MTT), cell line BT20. Particulars: 5 μM equivalent of photosensitizer, 15 hours, +PDT laser 670 nm, 40 mW/cm^2, 10 J/cm^2, MTT after 24 hours. The method, then: 9,000 BT20 cells were seeded in each well of 96-well plates. The next day, the photosensitizer-polypeptide conjugate prepared in Preparation Example 2 and the photosensitizer-metal nanoparticle complex prepared in Preparation Example 2 were diluted with a cell culture medium, thereby preparing an MMP2 probe (MMP2P) solution and a photosensitizer-metal nanoparticle complex (MMP2P-GNR) solution, which have a final concentration corresponding to 5 μM equivalent weight of the photosensitizer. Each solution was added at 200 μl per well to some wells, and the plate was maintained at 37° C. for 15 hours. Meanwhile, for the control group, the same volume of a fresh culture medium in which the photosensitizer was not included was added. Afterwards, the cells were washed twice with a cell culture medium, and for a photodynamic therapy (PDT) group, photodynamic therapy was performed using laser at 670 nm under conditions including a light dose density of 40 mW/cm^2, and a light dose of 10 J/cm^2. After 24 hours, cell viability was measured by MTT analysis.

In a further series the test system is HT1080 cells. Description: Cell viability after photodynamic therapy (MTT), cell line HT1080. Particulars: 5 μM equivalent of photosensitizer, 15 hours, +PDT laser 670 nm, 40 mW/cm^2, 10 J/cm^2, MTT after 24 hours. The protocol: For in vitro phototoxicity tests 9,000 HT1080 cells were seeded in each well of 96-well plates. The next day, the photosensitizer-polypeptide conjugate (MMP2P) prepared in Preparation Example 2 and the photosensitizer-metal nanoparticle complex (MMP2P-GNR) prepared in Preparation Example 3 were diluted with a cell culture medium, respectively, thereby preparing an MMP2 probe (MMP2P) solution and a photosensitizer-metal nanoparticle complex (MMP2P-GNR) solution, each of which has a final concentration corresponding to 5 μM equivalent weight of the photosensitizer. Each solution was added at 200 μl per well to some wells, and the plate was maintained at 37° C. for 15 hours. Meanwhile, for the control group, the same volume of a fresh culture medium in which the photosensitizer is not included was added to the other wells. Afterwards, the cells were washed twice with a cell culture medium, and for a photodynamic therapy (PDT) group, photodynamic therapy was carried out using laser at 670 nm under conditions including a dose density of 40 mW/cm^2 and a dose of 10 J/cm^2. After 24 hours, cell viability was measured by MTT analysis.

As usually defined, the cell viability is a read-out of living cells in per cent, often relative to untreated cells. As to MMP2P-GNR (CGGPLGVRGK), the fluorescence in cells result in series [1] was “much stronger fluorescence”. For the same substance, the cell viability in the series on BT20 cells is on record as 63%; with HT1080 cells it was 16%.
